T1: human factor VIIIa, P00451
T1 chain: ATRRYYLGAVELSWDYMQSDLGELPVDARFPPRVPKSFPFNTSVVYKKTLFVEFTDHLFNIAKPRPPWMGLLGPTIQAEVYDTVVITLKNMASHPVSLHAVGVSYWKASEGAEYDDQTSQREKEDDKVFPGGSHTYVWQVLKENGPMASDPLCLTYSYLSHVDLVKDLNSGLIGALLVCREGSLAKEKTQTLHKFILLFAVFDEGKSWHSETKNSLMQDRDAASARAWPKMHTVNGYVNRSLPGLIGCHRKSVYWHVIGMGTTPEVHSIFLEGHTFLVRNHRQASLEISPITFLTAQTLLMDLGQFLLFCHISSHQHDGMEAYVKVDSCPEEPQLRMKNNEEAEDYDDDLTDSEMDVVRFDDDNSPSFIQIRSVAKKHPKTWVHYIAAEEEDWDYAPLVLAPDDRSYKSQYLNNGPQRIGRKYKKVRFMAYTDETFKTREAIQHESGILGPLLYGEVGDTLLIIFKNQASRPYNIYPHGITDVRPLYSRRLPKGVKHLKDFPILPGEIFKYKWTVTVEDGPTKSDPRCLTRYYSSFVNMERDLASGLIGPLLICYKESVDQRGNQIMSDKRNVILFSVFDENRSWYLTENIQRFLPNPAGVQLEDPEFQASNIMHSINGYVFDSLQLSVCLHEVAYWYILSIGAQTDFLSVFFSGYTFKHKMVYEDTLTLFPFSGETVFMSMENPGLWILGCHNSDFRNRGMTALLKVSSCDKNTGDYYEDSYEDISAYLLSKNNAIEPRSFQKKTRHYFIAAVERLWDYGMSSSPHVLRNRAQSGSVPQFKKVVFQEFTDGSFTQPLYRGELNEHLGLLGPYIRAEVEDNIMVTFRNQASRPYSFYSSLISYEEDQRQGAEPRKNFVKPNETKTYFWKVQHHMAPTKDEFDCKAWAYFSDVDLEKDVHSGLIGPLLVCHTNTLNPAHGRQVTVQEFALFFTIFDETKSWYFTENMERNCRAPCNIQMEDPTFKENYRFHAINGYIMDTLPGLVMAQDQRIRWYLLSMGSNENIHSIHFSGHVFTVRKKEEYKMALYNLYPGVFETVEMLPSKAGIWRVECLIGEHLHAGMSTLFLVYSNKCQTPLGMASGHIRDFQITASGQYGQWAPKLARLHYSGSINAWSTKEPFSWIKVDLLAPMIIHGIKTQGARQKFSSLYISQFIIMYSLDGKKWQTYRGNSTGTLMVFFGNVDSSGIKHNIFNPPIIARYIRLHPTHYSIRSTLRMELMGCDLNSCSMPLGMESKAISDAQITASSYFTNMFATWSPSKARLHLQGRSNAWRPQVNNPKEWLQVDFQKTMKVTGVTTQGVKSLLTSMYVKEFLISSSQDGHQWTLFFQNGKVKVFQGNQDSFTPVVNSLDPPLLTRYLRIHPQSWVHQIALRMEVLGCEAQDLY

B1: wild-type human activated protein C (recombinant, thrombin-activated) (protein)
chain 1: ANSFLEELRHSSLERECIEEICDFEEAKEIFQNVDDTLAFWSKHVDGDQCLVLPLEHPCASLCCGHGTCIDGIGSFSCDCRSGWEGRFCQREVSFLNCSLDNGGCTHYCLEEVGWRRCSCAPGYKLGDDLLQCHPAVKFPCGRPWKRMEKKRSHL
chain 2: LIDGKMTRRGDSPWQVVLLDSKKKLACGAVLIHPSWVLTAAHCMDESKKLLVRLGEYDLRRWEKWELDLDIKEVFVHPNYSKSTTDNDIALLHLAQPATLSQTIVPICLPDSGLAERELNQAGQETLVTGWGYHSSREKEAKRNRTFVLNFIKIPVVPHNECSEVMSNMVSENMLCAGILGDRQDACEGDSGGPMVASFHGTWFLVGLVSWGEGCGLLHNYGVYTKVSRYLDWIHGHIRDKEAPQKSWAP
B2: wild-type bovine activated protein C (recombinant, thrombin-activated) (protein)
chain 1: ANSFLEELRPGNVERECSEEVCEFEEAREIFQNTEDTMAFWSKYSDGDQCEDRPSGSPCDLPCCGRGKCIDGLGGFRCDCAEGWEGRFCLHEVRFSNCSAENGGCAHYCMEEEGRRHCSCAPGYRLEDDHQLCVSKVTFPCGRLGKRMEKKRKTL
chain 2: IVDGQEAGWGESPWQAVLLDSKKKLVCGAVLIHVSWVLTVAHCLDSRKKLIVRLGEYDMRRWESWEVDLDIKEVIIHPNYTKSTSDNDIALLRLAKPATLSQTIVPICLPDSGLSERKLTQVGQETVVTGWGYRDETKRNRTFVLSFIKVPVVPYNACVHAMENKISENMLCAGILGDPRDACEGDSGGPMVTFFRGTWFLVGLVSWGEGCGRLYNYGVYTKVSRYLDWIYGHIKAQEAPLESQVP

Legend:
[1] = molecular target: Q506 mutant human factor Va (FVa Leiden), P12259
[2] = molecular target: bovine factor Va (in bovine plasma), Q28107
[3] = molecular target: T1, human factor VIIIa, P00451
[4] = molecular target: human factor Va (normal, from human plasma), P12259
Sequence of human factor Va (normal, from human plasma), P12259 (P12259 29-2224): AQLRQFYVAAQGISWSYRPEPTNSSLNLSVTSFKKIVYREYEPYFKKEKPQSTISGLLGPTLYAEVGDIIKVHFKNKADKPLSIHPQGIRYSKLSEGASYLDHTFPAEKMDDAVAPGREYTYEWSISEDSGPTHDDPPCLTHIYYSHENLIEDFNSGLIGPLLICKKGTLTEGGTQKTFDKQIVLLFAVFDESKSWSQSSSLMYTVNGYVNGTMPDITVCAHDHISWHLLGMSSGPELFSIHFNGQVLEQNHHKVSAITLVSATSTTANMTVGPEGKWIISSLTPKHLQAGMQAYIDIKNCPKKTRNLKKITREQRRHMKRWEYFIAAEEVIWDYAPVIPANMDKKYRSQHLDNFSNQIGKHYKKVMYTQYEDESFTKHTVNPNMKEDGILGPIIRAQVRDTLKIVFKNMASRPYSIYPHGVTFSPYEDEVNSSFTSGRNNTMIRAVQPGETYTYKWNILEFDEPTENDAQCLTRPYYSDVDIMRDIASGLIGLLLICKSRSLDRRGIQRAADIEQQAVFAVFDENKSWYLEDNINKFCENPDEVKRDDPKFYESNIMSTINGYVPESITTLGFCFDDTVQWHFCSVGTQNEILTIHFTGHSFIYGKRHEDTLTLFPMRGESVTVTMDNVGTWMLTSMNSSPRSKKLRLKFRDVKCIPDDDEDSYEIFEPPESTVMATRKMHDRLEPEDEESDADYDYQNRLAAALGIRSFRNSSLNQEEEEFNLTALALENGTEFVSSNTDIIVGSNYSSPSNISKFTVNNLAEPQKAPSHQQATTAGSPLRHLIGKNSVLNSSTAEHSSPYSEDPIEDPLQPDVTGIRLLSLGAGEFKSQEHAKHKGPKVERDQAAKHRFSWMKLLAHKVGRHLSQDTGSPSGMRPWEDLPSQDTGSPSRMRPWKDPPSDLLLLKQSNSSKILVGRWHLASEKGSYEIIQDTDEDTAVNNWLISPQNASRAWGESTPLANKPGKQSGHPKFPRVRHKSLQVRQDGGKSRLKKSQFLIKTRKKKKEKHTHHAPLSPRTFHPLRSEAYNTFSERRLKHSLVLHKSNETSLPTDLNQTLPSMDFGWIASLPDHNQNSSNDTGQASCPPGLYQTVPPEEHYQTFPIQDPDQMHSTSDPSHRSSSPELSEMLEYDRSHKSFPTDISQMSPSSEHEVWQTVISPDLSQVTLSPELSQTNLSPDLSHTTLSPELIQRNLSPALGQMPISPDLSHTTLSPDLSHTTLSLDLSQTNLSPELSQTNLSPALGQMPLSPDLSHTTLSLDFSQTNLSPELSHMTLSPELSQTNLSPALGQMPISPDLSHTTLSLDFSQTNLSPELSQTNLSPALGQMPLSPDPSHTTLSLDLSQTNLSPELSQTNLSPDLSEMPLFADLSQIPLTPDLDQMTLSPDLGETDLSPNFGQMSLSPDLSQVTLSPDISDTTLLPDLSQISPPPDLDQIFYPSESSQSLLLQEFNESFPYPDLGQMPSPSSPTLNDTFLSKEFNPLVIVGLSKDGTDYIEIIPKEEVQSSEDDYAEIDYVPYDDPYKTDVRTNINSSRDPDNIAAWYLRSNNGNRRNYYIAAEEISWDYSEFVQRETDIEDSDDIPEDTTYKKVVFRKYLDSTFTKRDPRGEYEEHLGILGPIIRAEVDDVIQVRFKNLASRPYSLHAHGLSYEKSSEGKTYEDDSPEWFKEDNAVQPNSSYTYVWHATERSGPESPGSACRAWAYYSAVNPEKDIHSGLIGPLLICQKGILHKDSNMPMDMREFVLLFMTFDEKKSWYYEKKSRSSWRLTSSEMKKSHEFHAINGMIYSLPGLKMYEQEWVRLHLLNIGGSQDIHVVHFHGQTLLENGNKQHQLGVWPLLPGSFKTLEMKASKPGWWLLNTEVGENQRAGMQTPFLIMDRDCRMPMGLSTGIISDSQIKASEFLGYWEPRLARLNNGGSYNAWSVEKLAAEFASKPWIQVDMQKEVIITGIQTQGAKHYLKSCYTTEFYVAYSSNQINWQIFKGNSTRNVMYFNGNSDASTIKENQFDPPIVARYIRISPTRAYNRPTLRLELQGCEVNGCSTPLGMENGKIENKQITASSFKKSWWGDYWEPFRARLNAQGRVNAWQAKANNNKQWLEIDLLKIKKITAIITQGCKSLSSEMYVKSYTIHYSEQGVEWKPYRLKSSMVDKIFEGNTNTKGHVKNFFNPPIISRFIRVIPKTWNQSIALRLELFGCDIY

Sequence of bovine factor Va (in bovine plasma), Q28107 (Q28107 29-2211): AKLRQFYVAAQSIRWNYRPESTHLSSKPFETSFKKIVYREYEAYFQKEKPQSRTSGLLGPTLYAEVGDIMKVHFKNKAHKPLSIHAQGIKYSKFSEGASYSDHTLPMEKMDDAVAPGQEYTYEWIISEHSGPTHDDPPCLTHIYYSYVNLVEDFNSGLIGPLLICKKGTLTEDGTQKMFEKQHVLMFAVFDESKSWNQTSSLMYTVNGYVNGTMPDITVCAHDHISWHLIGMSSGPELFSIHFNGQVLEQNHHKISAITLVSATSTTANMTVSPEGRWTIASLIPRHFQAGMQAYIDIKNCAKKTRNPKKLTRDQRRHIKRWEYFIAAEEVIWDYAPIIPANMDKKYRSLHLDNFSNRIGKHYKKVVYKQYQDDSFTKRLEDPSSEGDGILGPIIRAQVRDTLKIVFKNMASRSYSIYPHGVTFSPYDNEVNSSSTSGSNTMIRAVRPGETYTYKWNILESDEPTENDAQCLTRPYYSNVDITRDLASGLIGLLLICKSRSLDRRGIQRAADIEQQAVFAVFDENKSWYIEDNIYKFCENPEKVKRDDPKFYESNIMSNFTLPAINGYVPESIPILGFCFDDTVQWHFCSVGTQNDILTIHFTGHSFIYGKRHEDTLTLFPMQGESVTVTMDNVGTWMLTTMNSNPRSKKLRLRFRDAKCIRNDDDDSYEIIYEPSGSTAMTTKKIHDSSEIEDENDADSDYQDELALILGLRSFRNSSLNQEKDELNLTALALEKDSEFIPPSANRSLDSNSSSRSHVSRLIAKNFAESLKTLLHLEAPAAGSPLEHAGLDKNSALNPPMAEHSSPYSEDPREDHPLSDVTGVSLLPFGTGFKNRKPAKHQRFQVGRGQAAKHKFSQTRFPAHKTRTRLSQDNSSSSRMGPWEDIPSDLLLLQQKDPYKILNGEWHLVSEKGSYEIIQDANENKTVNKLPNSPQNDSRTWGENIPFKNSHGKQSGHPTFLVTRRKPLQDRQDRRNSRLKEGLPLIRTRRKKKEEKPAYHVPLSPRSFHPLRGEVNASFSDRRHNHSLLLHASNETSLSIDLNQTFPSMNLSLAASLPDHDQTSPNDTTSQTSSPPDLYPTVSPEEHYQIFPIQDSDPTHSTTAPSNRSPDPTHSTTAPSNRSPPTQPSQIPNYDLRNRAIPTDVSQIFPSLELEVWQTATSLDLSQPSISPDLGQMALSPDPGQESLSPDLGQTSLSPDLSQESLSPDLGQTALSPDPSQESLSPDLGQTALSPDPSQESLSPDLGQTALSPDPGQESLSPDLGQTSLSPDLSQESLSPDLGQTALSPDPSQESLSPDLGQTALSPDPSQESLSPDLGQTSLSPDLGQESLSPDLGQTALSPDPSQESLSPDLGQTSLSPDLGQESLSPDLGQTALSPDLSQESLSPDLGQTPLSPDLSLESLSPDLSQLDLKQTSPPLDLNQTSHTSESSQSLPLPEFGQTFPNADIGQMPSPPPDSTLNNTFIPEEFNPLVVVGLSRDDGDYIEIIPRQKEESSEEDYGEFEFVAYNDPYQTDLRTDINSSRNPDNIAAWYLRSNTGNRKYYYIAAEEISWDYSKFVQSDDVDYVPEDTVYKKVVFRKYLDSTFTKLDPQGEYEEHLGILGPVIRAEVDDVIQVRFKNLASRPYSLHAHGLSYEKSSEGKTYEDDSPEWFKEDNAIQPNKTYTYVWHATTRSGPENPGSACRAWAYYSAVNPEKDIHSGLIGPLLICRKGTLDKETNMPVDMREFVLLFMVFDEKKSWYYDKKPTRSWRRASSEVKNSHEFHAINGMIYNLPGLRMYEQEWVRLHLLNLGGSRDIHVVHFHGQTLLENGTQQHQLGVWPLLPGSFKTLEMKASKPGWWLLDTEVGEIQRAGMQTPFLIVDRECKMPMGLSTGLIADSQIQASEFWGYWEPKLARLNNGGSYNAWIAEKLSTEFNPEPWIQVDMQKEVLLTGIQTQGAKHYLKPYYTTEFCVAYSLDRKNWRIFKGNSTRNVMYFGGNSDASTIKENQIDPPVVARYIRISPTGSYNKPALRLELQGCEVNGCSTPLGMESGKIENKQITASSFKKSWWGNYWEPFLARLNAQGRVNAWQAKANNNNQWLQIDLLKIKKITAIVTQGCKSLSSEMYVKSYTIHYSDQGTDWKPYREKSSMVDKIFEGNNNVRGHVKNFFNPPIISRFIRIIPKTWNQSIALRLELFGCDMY
Sequence of Q506 mutant human factor Va (FVa Leiden), P12259 (P12259 other isoform, or with tags, fused parts or gaps mutant): as the sequence (P12259 29-2224) above, with R506Q counted along it

Protein | remaining FVa activity over time (prothrombinase assay); plasma FVa, 0.4 nM APC, phospholipid vesicles [1] | prothrombin time (PT) assay, clotting time in bovine plasma [2] | factor VIIIa inactivation assay (FXa formation, S-2222) with human protein S and factor V [3] | factor VIIIa inactivation assay with bovine protein S and bovine factor V [3] | prothrombin time (PT) assay, clotting time in human plasma [4] | remaining FVa activity over time (prothrombinase assay, S2238); 0.76 nM plasma FVa, 0.39 nM APC, phospholipid vesicles [4] | factor VIIIa inactivation assay with human protein S and factor V, low APC concentrations [3]
B1 | The addition of wt APC resulted in a slow decrease in FVa activity corresponding to cleavage at Arg306 | wild-type human APC and human APC-SP efficiently prolong clotting time in bovine plasma | the activity of factor VIIIa was inactivated by all APC's from section (2)(i) above but high concentrations were needed | able to inhibit factor VIIIa activity in the presence of bovine protein S and bovine factor V | Both wild-type human APC and human APC-SP increased clotting times essentially in this PT assay | initial rapid loss of FVa activity that is observed during the first 5 minutes of incubation; slow decrease in FVa activity observed between 5 minutes and 25 minutes of incubation | –
B2 | – | wild-type bovine APC and its mutant expressed only weak anticoagulant acitivity in bovine plasma | the activity of factor VIIIa was inactivated by all APC's from section (2)(i) above but high concentrations were needed | able to inhibit factor VIIIa activity in the presence of bovine protein S and bovine factor V; worked more efficiently than wild-type human APC and human APC-SP | Neither wild-type bovine APC nor bovine APC-SP had any effect in human plasma | – | At low concentrations, neither bovine wild-type APC nor bovine APC-SP could inactivate factor VIIIa

From US20050176083
